Data from publication PMC5993284, “Peptide inhibitors of the anaphase promoting-complex that cause sensitivity to microtubule poison” (PLoS ONE, 2018).
“Also recorded” adds a separate entry of the source. Ends that are not written are not given here. * marks the point of attachment. Biotin = O=C1N[C@H]2[C@H](CS[C@H]2CCCCC(=O)*)N1

Key:
APC/C^Cdc20 = target: T1, APC/C^Cdc20 (Saccharomyces cerevisiae, UniProt P16522+P53886); experiment: biochemical; format: biochemical; conditions: for inhibition of APC/C^Cdc20 activity (in words): 220 μM peptide, time course 0-60 minutes, vs buffer only, n = 3
T1 construct: constructed within full-length Cdc20 by site-directed mutagenesis for analysis in vitro in the APC/C^Cdc20 assay; The APC/C was purified for enzyme assays from 1 mL of TAP-tagged Cdc16 yeast extract (SCSY51); made in house; host or cells: Cdc20: in vitro transcription/translation in rabbit reticulocyte lysate, used unpurified; APC/C: S. cerevisiae strain SCSY51 (Cdc16-TAP) extract, captured on IgG magnetic beads
Procedure, shortened: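 Bead-bound TAP-Cdc16 yeast APC/C was mixed with IVT-made Cdc20 or Cdh1, pre-incubated 1 h at rt with checkpoint proteins or inhibitor peptides, plus pre-charged E1/E2/ATP/ubiquitin and ^35S-Pds1 in 20 mM HEPES pH 8.0, 100 mM NaCl, 1 mM MgCl2. Time points were stopped in SDS buffer and resolved by SDS-PAGE.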

[1] = system: budding yeast Saccharomyces cerevisiae cells; experiment: Benomyl sensitivity upon over expression in vivo (colony numbers per plate); format: cell-based; conditions: for benomyl sensitivity on over expression (in words): pGAL1-10 over expression with N-terminal NLS, 12.5 μg/mL benomyl, average colony numbers per plate, 5 replicates; for effect of over expression on colony number without benomyl (in words): pGAL1-10 over expression, galactose, no benomyl
Method: For the production of high quality DNA for in vitro transcription/translation E. coli were grown in 50 mL LB containing 100 μg/mL ampicillin for 12–16 hours at 37 °C. Purified plasmid DNA, which was dissolved with 50 μL ddH2O or DEPC (diethyl pyrocarbonate)-treated water, was measured at OD260/280 and stored at -20 °C (Bioman, Inc., Taiwan). All mutant allele expression plasmids were constructed employing site-directed mutagenesis following the manufacturer’s protocol (Stratagene, USA). Yeast were cultured under standard conditions. For large-scale yeast cultures to purify APC/C, yeast were cultured overnight in 10 mL YPD medium (20 g Dextrose, 20 g peptone, and 10 g yeast extract per liter) at 30 °C. 1.5 L of YPD medium in two Fernbach flasks was inoculated with 1 mL overnight culture and supplemented with 100 μg/mL ampicillin and 100 μg/mL streptomycin to prevent bacterial growth. Cell cycle arrest, collection of yeast cells and yeast cell extractions were all performed as previously described.
There is a long-term interest in identifying APC/C inhibitors that give rise to sensitivity to microtubule poisons in vivo. To determine if a Cdc20 Mad2-binding motif peptide was sufficient to induce a microtubule poison sensitivity phenotype in vivo, the DQ36 and PQ65 peptides were over expressed under the control of a galactose inducible pGAL1-10 promoter that had been integrated as single copy into the yeast genome together with the peptide open reading frames (ORF). The expressed proteins were engineered to contain an N-terminal nuclear localization signal ([…]) along with a short amino acid ‘linker’ in order to target the nuclear pool of the APC/C because yeast undergo a closed mitosis without nuclear envelope breakdown. […] This phenotype was suppressed by mutating the yeast KILR-motif residues RILQY to AAAAA (Fig 7B) providing a direct correlation between our observed in vitro APC/C inhibition that requires the yeast KILR-motif RILQY residues and an in vivo microtubule poison sensitivity phenotype.

## DQ36-mut1: DQ36-mut1 where all 5 RILQY residues were changed to alanine AAAAA (Biotin-DMNKAAAAAMPEPPKCSSLRQKSYIMKKRTHYSYQQ)
APC/C^Cdc20; 35S-Pds1 substrate
  inhibition of APC/C^Cdc20 activity (in words): The RILQY residues of the yeast KILR-motif were observed to be essential for full inhibition
[1]
  benomyl sensitivity on over expression (in words): The benomyl sensitivity phenotype was not observed
  effect of over expression on colony number without benomyl (in words): no significant difference in colony numbers per plate in the absence of benomyl

B1: PQ65: 65 amino acid residue peptide called PQ65 (Cdc20 169–232) (peptide, UniProt P26309 169-232, looked up, fragment)
chain: PPNASPISHLRAQTKIVFKQNVAEACGLDMNKRILQYMPEPPKCSSLRQKSYIMKKRTHYSYQQ
APC/C^Cdc20; 35S-Pds1 substrate
  inhibition of APC/C^Cdc20 activity (in words): sufficient to inhibit APC/C^Cdc20 activity; also recorded: A significant level of APC/C^Cdc20 inhibition was observed
APC/C^Cdc20; discussion/conclusion statement
  overall APC/C inhibition (in words): displayed the highest level of APC/C inhibition in vitro
APC/C^Cdc20; peptide titration dilution series, 35S-Pds1 substrate, estimated/approximate, read-out: IC50
  IC50: < 50 µM
[1]
  benomyl sensitivity on over expression (in words): induced a significant sensitivity to benomyl; also recorded: leads to sensitivity to the microtubule poison benomyl
  effect of over expression on colony number without benomyl (in words): no change in colony number or colony morphology was observed; also recorded: no significant difference in colony numbers per plate in the absence of benomyl
